Measured values from US20130344592A1 (University of Pennsylvania, published 2013).
Positions of bridges follow the written chain, without caps; N, C: chain ends. No end group written: not given here.

T1: fH19-20 (human, UniProt P08603 1107-1231)
T1 construct: domain: SCR19-20; also called factor H SCR19-20; C-terminal two SCR of factor H
T1 sequence (looked up): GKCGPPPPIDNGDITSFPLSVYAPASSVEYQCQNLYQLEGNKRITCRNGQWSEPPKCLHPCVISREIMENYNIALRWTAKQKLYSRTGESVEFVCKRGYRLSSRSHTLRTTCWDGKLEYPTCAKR


How the values were obtained:
factor H SCR 1-4 (fH1-4) [1] = biological target: T2, factor H SCR 1-4 (fH1-4) (human, UniProt P08603 19-264); assay: SPR, biotinylated peptide captured on streptavidin chip, fragment injected
T2 construct: domain: SCR 1-4; also called N-terminal fragment of factor H; regulatory fH1-4 fragment
Description: The binding of factor H with surface-bound 5C6 peptide was further characterized using surface plasmon resonance (SPR) on a ProteOn XPR36 instrument (Bio-Rad Inc., Hercules, Calif.) using PBST (10 mM sodium phosphate, 150 mM NaCl, 0.005% Tween 20) as running buffer. Streptavidin (50 μg/ml in 10 mM sodium acetate pH 5.0) was immobilized on a GLC sensor chip at 30° C. using amine coupling. The biotinylated 5C6 peptide and a biotinylated control peptide (linear compstatin; see above) were captured on separate streptavidin-coated channels to a density of ˜200 resonance units (RU). Purified factor H (Complement Technologies, Tyler, Tex.) or recombinant fragments fH1-4 and fH19-20 were injected at a concentration of 100 nM for 2 rain at a flow rate of 25 μl/min with a dissociation phase of 6 min. A single injection of 2 M NaCl for 30 s was used to regenerate the surface between injections. […]
The binding activity and specificity was further validated using SPR assays, by simultaneously injecting factor H or its fragments over biotinylated 5C6 peptide and the control peptide, which were captured on a streptavidin-coated sensor chip. […] While a significant SPR response could also be detected for the fH19-20 fragment, this interaction was not stable and the signal rapidly returned to baseline. […]

Human factor H [2] = biological target: T3, Human factor H (human, UniProt P08603 19-1231); assay: ELISA, biotinylated peptide on coated streptavidin, purified factor H detected by polyclonal antibody
T3 construct: mature; Plasma-derived protein; also called fH
Description: (§1) Two approaches were used to evaluate the binding of synthetic peptides to factor H. First, we used peptide-phage competition assays, in which serially diluted synthetic peptide was added to its parent phage at the step of phage binding to coated factor H. The rest of the steps were performed as described above for monoclonal phage ELISA. Second, ELISA experiments were used to evaluate the binding of factor H to the immobilized peptide. Microtiter plates were coated with streptavidin (New England Biolabs) at 10 μg/ml in PBS at 4° C. overnight, and saturated with 2% BSA in PBS. After washing, either the biotinylated 5C6 peptide or a biotinylated control peptide (linear compstatin; […]) was added at 10 μg/ml and allowed to bind at RT for 30 min. […] After 1 h of binding, the plates were washed, and bound factor H was detected with goat anti-human factor H polyclonal antibody (Quidel, San Diego, Calif.), followed by HRP-conjugated rabbit anti-goat IgG (Bio-Rad). […]
(§2) The direct binding between the peptide and factor H was initially evaluated in an ELISA experiment, in which the biotinylated 5C6 peptide and a biotinylated control peptide of similar size and charge (i.e., linear compstatin) were captured by coated streptavidin and the binding of purified factor H was detected by polyclonal antibodies.

factor H SCR 1-4 (fH1-4) [3] = biological target: T2, factor H SCR 1-4 (fH1-4); assay: monoclonal phage ELISA
Description: (§3) Microtiter wells were coated overnight with either factor H or BSA at 5 μg/mL in PBS at 4° C., and saturated with 5% non-fat milk in PBST for 1 h. Completely separated individual phage plaques from the third round of screening were picked and amplified. Phage particles of each amplified individual phage plaque were added to both factor H- and BSA-coated wells in parallel and allowed to bind at RT for 1 h. After six washes with PBST, bound phages were detected with HRP-conjugated anti-M13 monoclonal antibody (GE Healthcare), using ABTS (Roche) for color development. Clones that bound to factor H but not to BSA were considered positive; single-stranded DNA from positive clones was prepared using an M13 kit (Qiagen, Valencia, Calif.) and sequenced by the DNA sequencing facility of the University of Pennsylvania.
(§4) To localize the binding sites on factor H of the positive clones, we further tested each clone by monoclonal phage ELISA for binding to factor H and its N- and C-terminal fragments, i.e. fH1-4 and fH19-20.

fH19-20 [4] = biological target: T1, fH19-20; assay: monoclonal phage ELISA
Description: as §3, §4

BSA = biological target: T4, BSA (UniProt P02769 25-607); assay: monoclonal phage ELISA, BSA coated at 5 µg/mL
T4 construct: Only printed as 'BSA'
Description: as §3

Human factor H [5] = biological target: T3, Human factor H; assay: monoclonal phage ELISA on coated factor H
Description: as §3

Human factor H [6] = biological target: T3, Human factor H; assay: peptide-phage competition ELISA on coated factor H
Description: Two approaches were used to evaluate the binding of synthetic peptides to factor H. First, we used peptide-phage competition assays, in which serially diluted synthetic peptide was added to its parent phage at the step of phage binding to coated factor H. The rest of the steps were performed as described above for monoclonal phage ELISA. Second, ELISA experiments were used to evaluate the binding of factor H to the immobilized peptide. Microtiter plates were coated with streptavidin (New England Biolabs) at 10 μg/ml in PBS at 4° C. overnight, and saturated with 2% BSA in PBS. After washing, either the biotinylated 5C6 peptide or a biotinylated control peptide (linear compstatin; […]) was added at 10 μg/ml and allowed to bind at RT for 30 min. The wells were washed again, and factor H serially diluted in PBS, starting with 2.5 μg/ml, was added. After 1 h of binding, the plates were washed, and bound factor H was detected with goat anti-human factor H polyclonal antibody (Quidel, San Diego, Calif.), followed by HRP-conjugated rabbit anti-goat IgG (Bio-Rad). […]

Human factor H [7] = biological target: T3, Human factor H; assay: ELISA, biotinylated peptide on coated streptavidin, factor H detected by polyclonal antibody
Description: as §1, §2

factor H SCR 1-4 (fH1-4) [8] = biological target: T2, factor H SCR 1-4 (fH1-4); assay: monoclonal phage ELISA on coated fragment
Description: as §3, §4

fH19-20 [9] = biological target: T1, fH19-20; assay: monoclonal phage ELISA on coated fragment
Description: as §3, §4

T2 sequence (P08603 19-264 limits assumed): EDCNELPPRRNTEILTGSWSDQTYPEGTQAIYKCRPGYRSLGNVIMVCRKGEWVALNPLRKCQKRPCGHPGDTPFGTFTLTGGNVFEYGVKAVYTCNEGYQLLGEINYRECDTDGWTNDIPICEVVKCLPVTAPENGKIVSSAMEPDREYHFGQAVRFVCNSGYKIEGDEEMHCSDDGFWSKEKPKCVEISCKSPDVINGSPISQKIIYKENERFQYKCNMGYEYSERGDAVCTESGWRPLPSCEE
T4 sequence (P02769 25-607 limits assumed): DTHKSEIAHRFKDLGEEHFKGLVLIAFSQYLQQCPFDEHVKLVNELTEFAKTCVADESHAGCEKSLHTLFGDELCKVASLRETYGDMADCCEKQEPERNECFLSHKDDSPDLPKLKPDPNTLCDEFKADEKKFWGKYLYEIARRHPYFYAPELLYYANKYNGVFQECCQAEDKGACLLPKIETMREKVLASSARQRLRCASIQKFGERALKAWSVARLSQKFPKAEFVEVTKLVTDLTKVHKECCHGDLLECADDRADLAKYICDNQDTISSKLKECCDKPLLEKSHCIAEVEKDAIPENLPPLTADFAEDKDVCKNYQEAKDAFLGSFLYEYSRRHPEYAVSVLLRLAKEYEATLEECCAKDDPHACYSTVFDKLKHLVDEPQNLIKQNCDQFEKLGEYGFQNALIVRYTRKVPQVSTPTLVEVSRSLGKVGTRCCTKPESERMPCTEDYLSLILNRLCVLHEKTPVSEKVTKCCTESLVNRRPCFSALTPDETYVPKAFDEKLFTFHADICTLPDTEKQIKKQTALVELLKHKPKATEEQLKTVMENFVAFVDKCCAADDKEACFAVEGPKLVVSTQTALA

Binder	binding result (factor H SCR 1-4 (fH1-4) [3])	binding result (fH19-20 [4])	binding result (BSA)	binding result (Human factor H [5])	also measured
ASSSRCTYDHWCSH-{K(biotin)-NH2} (disulfide 6-12, Captured on coated streptavidin (polystyrene wells or SPR chips); also called immobilized 5C6 peptide; not shown: C-terminal lysine carrying biotin) [Biotinylated 5C6 peptide]					binding result (factor H SCR 1-4 (fH1-4) [1]): no binding (tested: 100 nM); binding result (Human factor H [2]): binds
ASPSWCSYSHWCRH (not shown: not specified for the library) [Phage clone 5D1 (class 3, library ANL5)]	no binding	no binding	no binding	binds	
ASSSRCTYDHWCSH (also called parent phage of the 5C6 peptide; not shown: not specified for the library) [Phage clone 5C6 (class 3, library ANL5)]	no binding		no binding	binds	
ASSSRCTYDHWCSH-NH2 (disulfide 6-12; N-terminus assumed; SMILES C[C@H](N)C(=O)N[C@@H](CO)C(=O)N[C@@H](CO)C(=O)N[C@@H](CO)C(=O)N[C@@H](CCCNC(=N)N)C(=O)N[C@H]1CSSC[C@@H](C(=O)N[C@@H](CO)C(=O)N[C@@H](Cc2c[nH]cn2)C(N)=O)NC(=O)[C@H](Cc2c[nH]c3ccccc23)NC(=O)[C@H](Cc2c[nH]cn2)NC(=O)[C@H](CC(=O)O)NC(=O)[C@H](Cc2ccc(O)cc2)NC(=O)[C@H]([C@@H](C)O)NC1=O, also called peptide 5C6) [Synthetic 5C6 peptide]					binding result (Human factor H [6]): binds
IAVVQDWGHHRAT (also: biotinylated, site not given here, captured on coated streptavidin; also called LC; negative control peptide) [Biotinylated control peptide (linear compstatin, Cys-to-Ala double mutant)]					binding result (Human factor H [7]): no binding
ASSCMYSYWCTH (not shown: not specified for the library) [Phage clone 5-2B2 (class 3, library ANL5)]	no binding	no binding	no binding	binds	
ASSNVCSYSYWCAH (not shown: not specified for the library) [Phage clone 5G11 (class 3, library ANL5)]	no binding	no binding	no binding	binds	
ASSYDVGYSHDCRF (not shown: not specified for the library) [Phage clone 5-2C6 (class 2, library ANL5)]			no binding	binds	binding result (factor H SCR 1-4 (fH1-4) [8]): binds
ASSGMCFTKKTVLC (not shown: not specified for the library) [Phage clone 4A1 (class 1, library ANL4)]			no binding	binds	binding result (fH19-20 [9]): binds
ASSFKCDYSHWCLH (not shown: not specified for the library) [Phage clone 5E10 (class 3, library ANL5)]	no binding	no binding	no binding	binds	
